# T1: HMGB1 (Homo sapiens, UniProt P09429)
# T1 sequence (P09429 1-215): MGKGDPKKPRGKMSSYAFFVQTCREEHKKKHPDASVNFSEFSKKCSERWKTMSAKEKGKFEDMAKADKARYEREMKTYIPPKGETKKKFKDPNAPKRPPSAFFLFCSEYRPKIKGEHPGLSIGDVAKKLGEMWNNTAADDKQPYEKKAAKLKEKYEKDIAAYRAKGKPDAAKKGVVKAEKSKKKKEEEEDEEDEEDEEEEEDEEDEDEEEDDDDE
# T2: HMGB2 (Homo sapiens, UniProt P26583)
# T2 construct: endogenous in cells; host or cells: THP-1 (PMA-differentiated)
# T2 sequence (P26583 1-209): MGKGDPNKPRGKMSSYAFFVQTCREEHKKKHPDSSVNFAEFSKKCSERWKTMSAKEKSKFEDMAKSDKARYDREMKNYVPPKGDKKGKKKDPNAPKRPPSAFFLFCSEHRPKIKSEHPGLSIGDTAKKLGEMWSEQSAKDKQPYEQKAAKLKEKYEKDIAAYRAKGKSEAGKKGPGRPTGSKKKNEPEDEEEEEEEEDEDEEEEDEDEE
# T3: HMGB1 full-length and domains (Homo sapiens, UniProt P09429)
# T3 construct: recombinant GST constructs encoding full-length HMGB1 or distinct HMGB1 domains
# T3 sequence (P09429 1-215): T1 sequence (P09429 1-215)
# B1: protein VII: mature protein VII of human adenovirus type 5 (SEQ ID NO:1), expressed in cells, mostly with C-terminal HA tag (protein)
# chain: AKKRSDQHPVRVRGHYRAPWGAHKRGRTGRTTVDDAIDAVVEEARNYTPTPPPVSTVDAAIQTVVRGARRYAKMKRRRRRVARRHRRRPGTAAQRAAAALLNRARRTGRRAAMRAARRLAAGIVTVPPRSRRRAAAAAAAAISAMTQGRRGNVYWVRDSVSGLRVPVRTRPPRN
# modifications: C-terminal HA tag; Human adenovirus 5
# What was measured:
# HMGB1 [1] = target: T1, HMGB1; assay: Fluorescence recovery after photobleaching (FRAP) of HMGB1-mGFP; type: cell-based
# Method: Full-length HMGB1 was cloned from pcDNA3.1 Flag-hHMGB1 (Addgene 31609) into pEGFP-N1 containing a L221K mutation to prevent dimerization of GFP molecules (Zacharias et al. (2002) Science 296:913-916). A549 cells were induced to express protein VII for four days with doxycycline in glass-bottom dishes. Cells were then transfected with the construct that constitutively expresses HMGB1 with a monomeric GFP C-terminal tag. FRAP was carried out using standard methods on a Zeiss LSM confocal microscope. Diffusion coefficients were calculated using the “simFRAP” algorithm (imagej.nih.gov/ij/plugins/simfrap/index.html), a simulation based approach to FRAP analysis (Blumenthal et al. (2015) Sci. Rep., 5:11655).
# HMGB2 = target: T2, HMGB2; assay: Release assay of HMGB2 in THP-1 cells; type: cell-based; conditions: PMA-treated THP-1 cells, LPS plus nigericin
# Method: THP-1 cells were seeded at a density of 2×10^5 cells per well in a 24-well plate, and stimulated into macrophage-like cells by addition of 10 ng/mL PMA for 48 hours. Cells were washed in PBS and transduced with recombinant adenovirus vectors expressing only GFP or protein VII-GFP such that >90% of cells were GFP positive. At 48 hours post transduction, cells were washed and 200 μL of serum free RPMI was added. To stimulate the inflammasome, LPS (Sigma-Aldrich L2880) with a final concentration of 0.5 μg/mL was added to wells and incubated for 2 hours, then nigericin (Sigma-Aldrich N7143) was added with a final concentration of 10 μM for 1 hour. Supernatants were collected and proteins precipitated overnight at 4° C. with a final concentration of 20% trichloroacetic acid (Sigma), washed with acetone, dried, and resuspended in 1×sample buffer with reducing agent (Invitrogen). For ELISA analysis, supernatants were harvested directly and HMGB1 content was detected by the manufacturer's instructions (Chondrex 6010). Cells were also harvested by the addition of 1×sample buffer with reducing agent (Invitrogen) and boiled. Supernatants and lysates were analyzed together by western blot.
# [2] = target: T3, HMGB1 full-length and domains; assay: In vitro GST pull down of recombinant GST-HMGB1 constructs with protein VII; type: binding
# [3] = tested on: HMGB1 full-length and domains; assay: as above; type: binding
# cellular chromatin = assay: Chromatin appearance in inducible cell lines (immunofluorescence, DAPI); type: cell-based; conditions: inducible expression
# Text: Primary small airway epithelial cells (SAECs), U2OS, HeLa, 293, THP-1 and A549 cells were obtained from the American Tissue Culture Collection (ATCC) and grown according to the provider's instructions. Acceptor cells for generation of inducible cell lines were used as reported (Khandelia et al. (2011) Proc. Natl. Acad. Sci., 108:12799-12804). Protein VII, preVII and V were cloned from genomic DNA isolated from HeLa cells infected with adenovirus type 5 and inserted into the inducible plasmid cassette with a C-terminal HA tag using restriction enzymes BsrGI and AgeI. Positive clones were selected in DH5a cells, sequenced, and transfected into A549, U2OS or HeLa acceptor cells along with plasmid expressing the Cre recombinase. Recombined clones were selected by puromycin resistance (1 μg/mL) and induced with doxycycline (0.2 μg/mL) to express the desired protein. Protein expression was verified by immunofluorescence and western blot. All figures shown are after 4 days of induction unless otherwise stated. Protein VII and preVII were also verified by HPLC purification and mass spectrometry analysis. Point mutations were generated by gene synthesis from Genewiz.
# Cells were grown on glass coverslips in 24-well plates and either infected or induced with doxycycline (0.2 μg/mL). […]
# HMGB1 [4] = target: T1, HMGB1; assay: Co-immunoprecipitation of HMGB1 with protein VII-HA in A549 cells; type: cell-based; set-up: endogenous in cells; host or cells: A549; conditions: A549 cells induced 4 days
# Method: A549 cells were induced to express protein VII with doxycycline for four days as described above. Approximately 4×10^7 cells were harvested and pelleted for each immunoprecipitation reaction. Cell pellets were resuspended in 500 μl of IC wash buffer with protease inhibitors (20 mM HEPES pH 7.9, 110 mM KOAc, 2 mM MgCl2, 150 mM NaCl, 0.1% Tween-20, 0.1% Triton X) and incubated on ice for 10 minutes with intermittent vortexing to disrupt cells. Samples were then incubated on ice for 1 hour with 5 μl of benzonase (Millipore) added to each sample to digest DNA to ˜150 bp, which was confirmed by DNA isolation and agarose gel analysis. Samples were then sonicated in a Diagenode Bioruptre for 30 seconds on and 30 seconds off for five rounds at 4° C. and centrifuged at 14,000 g for 15 minutes at 4° C. Supernatants were then incubated rotating for 1 hour at 4° C. with 30 μl of HA-conjugated magnetic beads (Thermo Scientific) and washed three times for five minutes in IC buffer. Isolated proteins were eluted with 100 μl of 2 mg/ml HA peptide (Thermo Scientific) for 20 minutes rotating at 37° C. and separated on and SDS-PAGE gel. For protein separation by SDS-PAGE the NuPAGE IDE System was used (NuPAGE Novex 4-12% bis-tris 1.0 mm gels, Invitrogen, USA). Uninduced cells were used as a negative control. […]
molecule,measurement,setting,value
B1,HMGB1 mobility by FRAP,"HMGB1 [1]; A549 cells expressing protein VII, HMGB1-mGFP",decreased HMGB1 diffusion
same,Fluorescence recovery after photo-bleaching of full-length HMGB1 and HMGB1 A box,HMGB1 [1]; upon expression of protein VII,dramatically delayed
same,HMGB2 in supernatants,HMGB2,reduced levels
same,Pull-down by full-length HMGB1 construct in vitro,[2],able to also pull-down protein VII
same,Binding to HMGB1 acidic tail (C-terminus) in vitro,[3],binds
same,Effect on chromatin appearance,cellular chromatin,altered nuclear DNA into a punctate appearance
same,HMGB1 co-immunoprecipitation with protein VII,HMGB1 [4],confirmed

# From US20190276499A1, “Protein VII Fragments and Methods of Use Thereof for the Treatment of Inflammatory Disorders” (priority 2016, published 2019)
